{"source": "paper PMC5834214", "about": "(PLoS Pathogens, 2018)", "molecules": {"B1": {"name": "HNRNPC (protein, UniProt P07910 2-306, looked up)", "Heterogeneous nuclear …": "ASNVTNKTDPRSMNSRVFIGNLNTLVVKKSDVEAIFSKYGKIVGCSVHKGFAFVQYVNERNARAAVAGEDGRMIAGQVLDINLAAEPKVNRGKAGVKRSAAEMYGSVTEHPSPSPLLSSSFDLDYDFQRDYYDRMYSYPARVPPPPPIARAVVPSKRQRVSGNTSRRGKSGFNSKSGQRGSSKSGKLKGDDLQAIKKELTQIKQKVDSLLENLEKIEKEQSKQAVEMKNDKSEEEQSSSSVKKDETNVKMESEGGADDSAEEGDLLDDDDNEDRGDDQLELIKDDEKEAEEGEDDRDSANGEDDS"}}, "key": {"LCMV NP (Strep-NP)": {"molecular_target": "LCMV NP (Strep-NP) (Lymphocytic choriomeningitis virus, UniProt P09992)", "sequence (P09992 whole entry)": "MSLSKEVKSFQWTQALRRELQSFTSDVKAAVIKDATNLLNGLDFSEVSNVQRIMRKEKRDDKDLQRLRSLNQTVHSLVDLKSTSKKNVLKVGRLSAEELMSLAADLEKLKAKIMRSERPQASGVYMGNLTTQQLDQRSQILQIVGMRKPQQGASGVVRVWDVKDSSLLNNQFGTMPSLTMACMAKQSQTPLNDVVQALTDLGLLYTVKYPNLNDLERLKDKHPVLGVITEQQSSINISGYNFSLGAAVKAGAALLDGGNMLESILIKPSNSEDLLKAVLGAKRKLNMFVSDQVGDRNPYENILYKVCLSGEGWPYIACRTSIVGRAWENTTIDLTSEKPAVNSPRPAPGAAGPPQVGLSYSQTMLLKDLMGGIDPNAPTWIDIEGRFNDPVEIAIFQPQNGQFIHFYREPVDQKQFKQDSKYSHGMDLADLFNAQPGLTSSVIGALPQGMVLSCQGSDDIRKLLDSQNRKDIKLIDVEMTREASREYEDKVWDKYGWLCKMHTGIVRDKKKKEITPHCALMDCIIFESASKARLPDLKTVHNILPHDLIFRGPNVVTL"}, "eGFP": {"molecular_target": "eGFP (Aequorea victoria, UniProt P42212, F64L/H231L/S65T)"}}}
{"molecule": "B1", "values": [{"measurement": "Spectral count NP Average", "setting": "LCMV NP (Strep-NP)", "value": 4.5}, {"measurement": "Spectral count NP Exp. 1", "setting": "LCMV NP (Strep-NP)", "value": 4}, {"measurement": "Spectral count NP Exp. 2", "setting": "LCMV NP (Strep-NP)", "value": 5}, {"measurement": "Spectral count eGFP Average", "setting": "eGFP", "value": 0}, {"measurement": "Spectral count eGFP Exp. 1", "setting": "eGFP", "value": 0}, {"measurement": "Spectral count eGFP Exp. 2", "setting": "eGFP", "value": 0}]}
